# Measured values taken from patent US20080220049A1.
# Molecular target: mouse vascular endothelial growth factor receptor-2 Fc chimera (Flk-1-Fc) (mouse) (UniProt P35918)
# Assay: radioactive equilibrium binding, 1 nM Flk-1-Fc
# mouse vascular endothelial growth factor receptor-2 Fc chimera (Flk-1-Fc) (mouse), sequence (P35918 20-762, change not shown): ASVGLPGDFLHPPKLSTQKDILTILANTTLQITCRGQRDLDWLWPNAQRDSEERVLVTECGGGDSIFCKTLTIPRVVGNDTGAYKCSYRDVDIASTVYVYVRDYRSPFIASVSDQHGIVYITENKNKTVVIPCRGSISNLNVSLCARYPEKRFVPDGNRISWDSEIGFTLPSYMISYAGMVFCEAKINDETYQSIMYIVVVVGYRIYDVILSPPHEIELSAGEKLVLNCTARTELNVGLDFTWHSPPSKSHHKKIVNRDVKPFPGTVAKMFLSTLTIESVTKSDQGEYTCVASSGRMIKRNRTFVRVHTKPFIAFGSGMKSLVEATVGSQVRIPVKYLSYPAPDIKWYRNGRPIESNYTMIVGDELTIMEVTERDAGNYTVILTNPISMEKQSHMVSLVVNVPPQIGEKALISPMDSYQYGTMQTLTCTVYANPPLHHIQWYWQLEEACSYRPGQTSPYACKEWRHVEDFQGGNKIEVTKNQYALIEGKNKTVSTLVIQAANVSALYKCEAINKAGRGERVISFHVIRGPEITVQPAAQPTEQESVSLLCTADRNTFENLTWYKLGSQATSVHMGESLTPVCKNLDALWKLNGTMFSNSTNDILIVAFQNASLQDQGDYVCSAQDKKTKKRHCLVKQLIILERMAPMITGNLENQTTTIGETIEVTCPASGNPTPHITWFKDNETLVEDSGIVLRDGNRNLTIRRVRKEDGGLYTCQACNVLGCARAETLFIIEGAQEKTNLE
row,Binder,"Binding to 1 nM Flk-1, % [%]"
1,A4 (designed binder) EVVAATPTSLLISWRHPHFPTRYYRITYGETGGNSPVQEFTVPLQPPTATISGLKPGVDYTITGYAVTDGYNDRLLFIPISINYRT,2
2,E12 (designed binder) EVVAATPTSLLISWRHPHFPTRYYRITYGETGGNSPVQEFTVPLQPPTATISGLKPGVDYTITGYAVTFARDGHEILTPISINYRT,1
3,F1 (designed binder) EVVAATPTSLLISWRHPHFPTRYYRITYGETGGNSPVQEFTVPLQPPTATISGLKPGVDYTITGYAVTSGRNDRELLVPISINYRT,2
4,A9 (designed binder) EVVAATPTSLLISWRHPHFPTRYYRITYGETGGNSPVQEFTVPLQPPTATISGLKPGVDYTITGYAVTEGWNDRELFVPISINYRT,4
5,F10 (designed binder) EVVAATPTSLLISWRHPHFPTRYYRITYGETGGNSPVQEFTVPLQPPTATISGLKPGVDYTITGYAVTMAPNGRELLTPISINYRT,1
6,A8 (designed binder) EVVAATPTSLLISWRHPHFPTRYYRITYGETGGNSPVQEFTVPLQPPTATISGLKPGVDYTITGYAVTDGLNGKYLFVPISINYRT,4
7,A7 (designed binder) EVVAATPTSLLISWRHPHFPTRYYRITYGETGGNSPVQEFTVPLQPPTATISGLKPGVDYTITGYAVTDGPNNRELIVPISINYRT,2
8,G1 (designed binder) EVVAATPTSLLISWRHPHFPTRYYRITYGETGGNSPVQEFTVPLQPPTATISGLKPGVDYTITGYAVTEGRNGRELMVPISINYRT,2
9,D11 (designed binder) EVVAATPTSLLISWRHPHFPTRYYRITYGETGGNSPVQEFTVPLQPPTATISGLKPGVDYTITGYAVTVERNGHKLFTPISINYRT,3
10,E10 (designed binder) EVVAATPTSLLISWRHPHFPTRYYRITYGETGGNSPVQEFTVPLQPPTATISGLKPGVDYTITGYAVTEGRNGRELFIPISINYRT,3
11,F12 (designed binder) EVVAATPTSLLISWRHPHFPTRYYRITYGETGGNSPVQEFTVPLQPPTATISGLKPGVDYTITGYAVTDGRNGHELMTPISINYRT,1
12,A10 (designed binder) EVVAATPTSLLISWRHPHFPTRYYRITYGETGGNSPVQEFTVPLQPPTATISGLKPGVDYTITGYAVTFGWNGRELLTPISINYRT,4

# Continued, values first:
row,"Binding to 1 nM Flk-1, % [%]",Binder
1,1,EGE9 (designed binder) EVVAATPTSLLISWRHPHFPTRYYRITYGETGGNSPVQEFTVPLQPPTATISGLKPGVDYTITGYAVTFGPNDRELLTPISINYRT
2,2,E15 (designed binder) EVVAATPTSLLISWRHPHFPTRYYRITYGETGGNSPVQEFTVPLQPPTATISGLKPGVDYTITGYAVTLEPNGRYLMVPISINYRT
3,1,EGE10 (designed binder) EVVAATPTSLLISWRHPHFPTRYYRITYGETGGNSPVQEFTVPLQPPTATISGLKPGVDYTITGYAVTMGPNDRELLTPISINYRT
4,3,E22 (designed binder) EVVAATPTSLLISWRHPHFPTRYYRITYGETGGNSPVQEFTVPLQPPTATISGLKPGVDYTITGYAVTLGRNDRELLTPISINYRT
5,1,EGE11 (Table 2 row SEQ ID NO 88) (designed binder) EVVAATPTSLLISWRHPHFPTRYYRITYGETGGNSPVQEFTVPLQPPTATISGLKPGVDYTITGYAVTMGKNDRELLTPISINYRT
6,1,E13 (designed binder) EVVAATPTSLLISWRHPHFPTRYYRITYGETGGNSPVQEFTVPLQPPTATISGLKPGVDYTITGYAVTLEQNGRELMTPISINYRT
7,1,E21 (designed binder) EVVAATPTSLLISWRHPHFPTRYYRITYGETGGNSPVQEFTVPLQPPTATISGLKPGVDYTITGYAVTWGYKDHELLIPISINYRT
